Substrate in series [1]: OC[C@H]1O[C@H](O[C@H]2[C@H](O)[C@@H](CO)OC(O)[C@H]2O)[C@@H](O)[C@@H](O)[C@@H]1O
Description: purified protein. Conditions: Zn2+. The series is classed as biochemical, Streptococcus pyogenes.

Substrate in series [2]: Cc1cc(=O)oc2cc(O[C@H]3O[C@H](CO)[C@@H](O)[C@H](O)[C@@H]3O)ccc12
As to the kind of experiment: purified protein. The series is classed as biochemical, Streptococcus pyogenes. The following applies: Zn2+.

The term Km denotes the substrate concentration at which the rate is half of its maximum.

B1: SpGH38 (Spy1604), family GH38 α-mannosidase (Streptococcus pyogenes serotype M1) (protein)
chain: MATKKVHIISHSHWDREWYMAYEQHHMRLINLIDDLLEVFQTDPDFHSFHLDGQTIILDDYLKVRPEREPEIRQAIASGKLRIGPFYILQDDFLTSSESNVRNMLIGKEDCDRWGASVPLGYFPDTFGNMGQTPQLMLKAGLQAAAFGRGIRPTGFNNQVDTSEKYSSQFSEISWQGPDNSRILGLLFANWYSNGNEIPTTEAEARLFWDKKLADAERFASTKHLLMMNGCDHQPVQLDVTKAIALANQLYPDYEFVHSCFEDYLADLADDLPENLSTVQGEITSQETDGWYTLANTASARIYLKQANTRVSRQLENITEPLAAMAYEVTSTYPHDQLRYAWKTLMQNHPHDSICGCSVDSVHREMMTRFEKAYEVGHYLAKEAAKQIADAIDTRDFPMDSQPFVLFNTSGHSKTSVAELSLTWKKYHFGQRFPKEVYQEAQEYLARLSQSFQIIDTSGQVRPEAEILGTSIAFDYDLPKRSFREPYFAIKVRLRLPITLPAMSWKTLALKLGNETTPSETVSLYDDSNQCLENGFLKVMIQTDGRLTITDKQSGLIYQDLLRFEDCGDIGNEYISRQPNHDQPFYADQGTIKLNIISNTAQVAELEIQQTFAIPISADKLLQAEMEAVIDITERQARRSQEKAELTLTTLIRMEKNNPRLQFTTRFDNQMTNHRLRVLFPTHLKTDHHLADSIFETVKRPNHPDATFWKNPSNPQHQECFVSLFDGENGVTIGNYGLNEYEILPDTNTIAITLLRSVGEMGDWGYFPTPEAQCLGKHSLSYSFESITKQTQFASYWRAQEGQVPVITTQTNQHEGTLAAEYSYLTGTNDQVALTAFKRRLADNALITRSYNLSNDKTCDFSLSLPNYNAKVTNLLEKDSKQSTPSQLGKAEILTLAWKKQ
notes: full length, residues 1-901, N-terminal His6-tag
Turning to B1, the Km in “purified protein [1]” worked out at 27 ± 0.75 mM; in “purified protein [2]”, 3.6 ± 1.0 mM.
